From the nanobody polyreactivity screen of Harvey et al. (2022)

assay: yeast display, Sf9 membrane polyspecificity reagent, FACS + sequencing; frameworks hold sequencing errors
Procedure, shortened: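 A synthetic nanobody library was expressed on Saccharomyces cerevisiae BJ5465 by galactose induction for 36–48 hours. The library was stained for 1 hour at 4 °C with 10% biotinylated, detergent-solubilized Sf9 membrane reagent and enriched with streptavidin microbeads before FACS. Low and high (top ~1%) gates were set on anti-HA fluorescence for expression and streptavidin fluorescence for reagent binding, and each polyreactivity label reflects the gate of origin.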

Sequence	polyreactivity (PSR sort gate)
QVQLVESGGGLVQAGGSLRLSCAASGRTFGFNAMGWYRQAPGKARELVAAISSSSSSTYYADSVKGRFTISRDNAKNTVYLQMNSLKPEDTAVYYCAKQEPYPFGGYYEYDYWGQGTQVTVSS	low polyreactivity
QVQLVESGGGLVQAGGSLRLSCAASGRTFGFNAMGWYRQAPGKERELVAAISGSGGRTYYADSVKGRFTISRDNAKNTVYLQMNSLKPEDTAVYYCAAGARRGGSGYWGQGTQVTVSS	high polyreactivity
QVQLVESGGGLVQAGGSLRLSCAASGRTFGFNAMGWYRQAPGKERELVATITTGGSTNYADSVKGRFTISRDNAKNTVYLQMNSLKPEDTAVYYCATDGWFRSGYKYFTHFYFWGQGTQVTVSS	high polyreactivity
QVQLVESGGGLVQAGGSLRLSCAASGRTFGFNVMGCSRQAPGKERELVAAISWSGGSTYYADSVKGRFTISRDNAKNTVYLQLNSLKPEDTAVYYCNKRDDHRYGYWGQGTQVTVSS	low polyreactivity
QVQLVESGGGLVQAGGSLRLSCAASGRTFGFNVMGWYRQAPGKEREFVAAITRSGGSTYYADSVKGRFTISRDIAKNTVYLQMNSLKPEDTAVYSCAAYKFSARYYYWGQGTQVTVSS	high polyreactivity
QVQLVESGGGLVQAGGSLRLSCAASGRTFGFYAMGWYRQAPGKEREFVAAIYKSGGSTYYADSVKGRFTISRDIANNTVYLQMISLKPEDTAVYYCIKKVGSYYRSYYYWGQGTQVTVSS	high polyreactivity
QVQLVESGGGLVQAGGSLRLSCAASGRTFGFYAMGWYRQAPGKERELVAAITSSGGRTYYADSVKGRFTISRDNAKNTVYLQMNSLKPEDTAVYYCATSGRGKYIRYGYWGQGTQVTVSS	high polyreactivity
QVQLVESGGGLVQAGGSLRLSCAASGRTFGFYAMGWYRQAPGKERELVASITWRRGRTYYADSVKGRFTISRDNAKNTLYLQMNSLNPEDTAVYYCAAVTFSYDGYDYWGQGTQVTVSS	low polyreactivity
QVQLVESGGGLVQAGGSLRLSCAASGRTFGGNAMGWYRQAPGKEWELVAAIDQSGGSTYYADSVKGRFTISRDNAKNTVYLQMISLKPEDTAVYYCARKTYSYFGHYYFWGQGTQVTVSS	low polyreactivity
QVQLVESGGGLVQAGGSLRLSCAASGRTFGGNTMGWYRQAPGKERELVAAISFSGGSTYYADSVKGRFTISRDNAKNTVYLQMNSLKPEDTAVYYCAKDPITATTLDERVYYWGQGTQVTVSS	low polyreactivity
QVQLVESGGGLVQAGGSLRLSCAASGRTFGGNVRGWYRQAPGKERELVAAISYSGGSTHYADSVKGRFTISRDNAKNTVYLQMMSLIPEDTAVYYCNKPFPYYPDGPNGYDYWGQGTQVTVSS	low polyreactivity
QVQLVESGGGLVQAGGSLRLSCAASGRTFGGYAMGSYRQAPGKERELVAAISRSGGRTYYADSVKGRFTISRDNAKNTVYLQMNSLKPEDSAVYYWADRLYVGPTAMDYWGEGTQVTVSS	high polyreactivity
QVQLVESGGGLVQAGGSLRLSCAASGRTFGHNAMGWYRQAPGKEREFVAAITYSGVRTFYADSVKGRFTISRDNAKNTVYLQMNSLKPEDTAVYYCATDWRRDYDYWGQGTQVTVSS	low polyreactivity
QVQLVESGGGLVQAGGSLRLSCAASGRTFGHYAMGWYRQAPGKERELVAAITSRGGSTNYADSVKGRFTISRDNAKKTDYLQMNSLKPEDTAVYYCAARLSPEEGYWGQGTQVTVSS	high polyreactivity
QVQLVESGGGLVQAGGSLRLSCAASGRTFGINAMGWYRQAPGKERELVAVISFGEGGTYYADSVKGRFTISRDNAKNTVYLQMNSLKPEDTAVYYCATDYQSTSVWGGHFVINPYDYWGLGTQVTVSS	low polyreactivity
QVQLVESGGGLVQAGGSLRLSCAASGRTFGINDMGWYRQAPGKERELVAVIRSGGGITFYADSVKGRFTISRDNAKNTVYLQMTSLKPEDTAVYYCAKTRRDFYDAINGGGPERYDYWGQGTQVTVSS	low polyreactivity
QVQLVESGGGLVQAGGSLRLSCAASGRTFGIYAMGWYRQAPGKEREFVAAISWSGTSTHYADSVKGRFTISRDNAKNTVYLQMNSLKPEDTAVYYCNADSRTYRYYWSYGYWGQGTQVTVSS	high polyreactivity
QVQLVESGGGLVQAGGSLRLSCAASGRTFGIYAMGWYRQAPGKERELVAAIRWRDGSTYYADSVKGRFTISRDNAKNTVYLQMNSLKPEDTAVYYCAATSRVYVRGSYWKYGYWGQGTQVTVSS	high polyreactivity
QVQLVESGGGLVQAGGSLRLSCAASGRTFGKNAMGWYRQAPGKERELVAAIRYRTGSTYYADSVKGRFTISRDNAKNTVYLQMNSLKPEDTAVYYCAKVGSSPLYWGQGTQVTVSS	high polyreactivity
QVQLVESGGGLVQAGGSLRLSCAASGRTFGKNAMGWYRQAPGKEREYVAAITSRGGSTYYADSVKGRFTISRDNAKNTVYLKMYSLKPDDTAFYFCNREYKRPSQRTEHYYWGQGTQVTVSS	low polyreactivity
QVQLVESGGGLVQAGGSLRLSCAASGRTFGKYAMGWYRQAPGKEREFVAAISRSGGNTYYADSVKGRFTISRDNAKNTVYLQMNSLKPEDTAVYYCAAKGFFYYWGQGTQVTVSS	high polyreactivity
QVQLVESGGGLVQAGGSLRLSCAASGRTFGKYAMGWYRQAPGKERELVAAITNSGGSTYYADSVKGRFTISRDNAKNTVYLQMNSLKPEDTAVYYCNRLGYRGTSKLNHMGYWGQGTQVTVSS	high polyreactivity

Sequence	polyreactivity (PSR sort gate)
QVQLVESGGGLVQAGGSLRLSCAASGRTFGLNAMGWYRQAPGKERELVAAISSSGGSTYYADSVKGRFTISRDNAKNTVYLQMNSLKPEDTAVYYSAKVLYLYGTAYYYWGQGTEVTVSS	high polyreactivity
QVQLVESGGGLVQAGGSLRLSCAASGRTFGLYAMGWYRQAPGKERELVAAIDQSTGSTYYADSVKGRFTISRDNAKNTVYLQMNSLKPEDTAVYYCAAEEASTVRYYWYDYWGQVTQVTVSS	high polyreactivity
QVQLVESGGGLVQAGGSLRLSCAASGRTFGLYAMGWYRQAPGKERELVAAISRSGGRTYYADSVKGRFTISRDNAKNTVYLQMNSLKPEDTAVYYCSTYYDRASYRYDYWGQGTQETVSS	high polyreactivity
QVQLVESGGGLVQAGGSLRLSCAASGRTFGLYAMGWYRQAPGKERELVAAISSGVSTNYADSVKGRFTISRDNAKNTVYLQMNSLKPEDTAVYYCAAKNYYPRVNYWGQGTQVTVSS	high polyreactivity
QVQLVESGGGLVQAGGSLRLSCAASGRTFGLYAMGWYRQAPGKERELVATITTSDIITYYADSVKGRFTISRDNAKNSVYLQMNSLKPEDTAVYYCASGGYDDFSSRPANDYWGQGTQVTVSS	low polyreactivity
QVQLVESGGGLVQAGGSLRLSCAASGRTFGNYVMGWYRQAPGKERELVAAIRSGTNTYYADSVKGRFTISLDNAKNTVYLQMNSLKPEVTAVYYCNKYVRTTDYDYWGQGIQVTVSS	high polyreactivity
QVQLVESGGGLVQAGGSLRLSCAASGRTFGPNAMGWYRQAPGKERELVAGISWRGTSTYYADSVKGRFTISRDNAKNTVYLQMNSLKPEDTAVYYCAKSVYGYGTLYDHWGQGTQVTVSS	high polyreactivity
QVQLVESGGGLVQAGGSLRLSCAASGRTFGPNVMGWYIQAPRKERELVAAITSGGTTYYADSVKGRFTISRDNANNTVYLLMNSLKPEDTAVYYCAKVLRGGRYDYWGQGTQVTVSS	low polyreactivity
QVQLVESGGGLVQAGGSLRLSCAASGRTFGPYAMGWYRQAPGKDSDLVATISWNGGSTYYADSVKGRFTISRDYAKNSVYLQMNSLKPEDTAVYYCAARHWSQSWKYGYWGQGTQVTVSS	high polyreactivity
QVQLVESGGGLVQAGGSLRLSCAASGRTFGPYAMGWYRQAPGKERELVAAISRSGGRTYYADSVKGRFTISRDNAKNTVYLQMNSLKPEDTAVYYCAARYYSEPNAYYYWGQGTQVTVSS	high polyreactivity
QVQLVESGGGLVQAGGSLRLSCAASGRTFGQYAMGWSRQAPGKERELVAAISARGASTYYADSVKGRFTISRDTAKNTVYLQMNSLKPEDTAVYYCNKYGRTSSTPLFYYWGQGTQVTVSS	high polyreactivity
QVQLVESGGGLVQAGGSLRLSCAASGRTFGQYAMGWYRQAPGKERQLVAAISTRGGSTYYADSVKGRFTISRDNAKNTVYLQMNSLKPEDTAVYYCAARPGWFAGYEYWGQGTQVTVSS	low polyreactivity
QVQLVESGGGLVQAGGSLRLSCAASGRTFGRKAMGWYRQAPGKERELVAAIARSGASTYYADSVKGRFTISRDNAKNTVYLQMNSLNPEDTAVYYCAKDVWGSRYAYDYWGQGTQVTVSS	low polyreactivity
QVQLVESGGGLVQAGGSLRLSCAASGRTFGRNAMGWYRQAPGKEREFVAAISRRGDTTYYADSVKGRFTISRDNAKNTVYLQMNSLKPEDTAVYYCNADVIKDRFSWYYYWGQGTQVTVSS	low polyreactivity
QVQLVESGGGLVQAGGSLRLSCAASGRTFGRNAMGWYRQATGKERELVAAISRSGASTYYADSVKGRFTISRDNAKNTVYLQMNSLKPEDTAVYYCAKDVWGSRYAYDYWGQGTQVTVSS	low polyreactivity
QVQLVESGGGLVQAGGSLRLSCAASGRTFGRYAMGWYRQAPGKEREFVAAIRSHGVSTYYADSVKGRFTISRDNAKNTVYLQMNSLKPEDTAVYYCAKPSTSYYQRGDYWGQGTQVTVSS	high polyreactivity
QVQLVESGGGLVQAGGSLRLSCAASGRTFGRYAMGWYRQAPGKERELVAAISWSGGSTNYADSVKGRFTISRDNAKNTVYLQMISLKPEDTAVYYCAAVTTDGVYAFDYWGQGTQVTVSS	low polyreactivity
QVQLVESGGGLVQAGGSLRLSCAASGRTFGRYAMGWYRQAPGKERELVAAISWTGGRTYYADSVKGRFTISRDNAKNTVYLQMNRLKPEDTAVYYCAALYDRNPAASRGYDSWGQGTQVTVSS	high polyreactivity
QVQLVESGGGLVQAGGSLRLSCAASGRTFGRYAMGWYRQAPGKERELVATITSGGSTNYADSVKGRFTISRDNAKNTVYLQMNSLKPEDTAVYYCAAEFSPSRWAYSEGALRYNYWGQGTQVNVSS	low polyreactivity
QVQLVESGGGLVQAGGSLRLSCAASGRTFGSNAMGWYRQAPGKERELVAAITSSADSTYYADSVKGRFTISRDNAKNTVYLQMNSLKPEDTAVYYCATDQGGYYENDYWGQGTQVTVSS	low polyreactivity
QVQLVESGGGLVQAGGSLRLSCAASGRTFGSNAMGWYRQAPGKERQLVAAITRRGGSTYYADSVKGRFTISRDNAKNTVYLQMNSLKPEDTAVYDCATDPVSTRGSDYWGQGTQVTVSS	low polyreactivity
